Twelve molecules from publication PMC6854716, “Redesigning N-glycosylation sites in a GH3 β-xylosidase improves the enzymatic efficiency” (Biotechnology for Biofuels, 2019) can be followed below.

For series [1], the system named is T1, O=[N+]([O-])c1ccc(O[C@@H]2OC[C@@H](O)[C@H](O)[C@H]2O)cc1.
T1 construct: homologous secreted expression in A. nidulans A773 (pEXPYR, glaA promoter, A. niger glucoamylase signal peptide); purified by DEAE and Superdex 200; N-glycosylated at N63, N340, N408, N419, N458, N621, N760
Briefly: purified protein. The format is biochemical, Aspergillus nidulans. The note with it: 0.05 M ammonium acetate pH 5.0, 60 °C, 1–20 mM substrate.

Series [2] in a line: Michaelis-Menten kinetics, purified enzyme, pH 5.0, 60 °C. The note with it: glycan lost; control: BxlBwt.
Series [3] is described as follows: far-UV CD secondary structure. The note with it: glycan lost; control: BxlBwt.
A short description of series [4]: CD thermal melt, 20-100 °C. The note with it: glycan lost; control: BxlBwt.
The nature of series [5]: western blot of crude extracellular extract, polyclonal anti-BxlB. The note with it: glycan lost; control: BxlBwt.

Take “BxlB^wt (GH3 β-xylosidase BxlB) (Aspergillus nidulans FGSC A4; N340Q/N408Q/N419Q/N621Q/N63Q/N760Q)”: in series [1], the Km – broadly, the substrate concentration at which the rate is half of its maximum – turned out to be 2710 ± 210 µM; the Vmax (as a rule, the rate approached at saturating substrate) is 6.08 µmol/min/mg; the kcat (usually the maximal rate divided by the concentration of active sites) stood at 3.71 s⁻¹.
As for “BxlB^wt (GH3 β-xylosidase BxlB) (Aspergillus nidulans FGSC A4; N340Q/N408Q/N419Q/N621Q)”, in series [1], the Km is 2490 ± 430 µM; the Vmax came to 17.3 µmol/min/mg; the kcat turned out to be 23.7 s⁻¹; the kcat/Km – broadly, the second-order rate constant that governs catalysis at low substrate concentration – turned out to be 9510 M⁻¹ s⁻¹.
As to “BxlB^wt (GH3 β-xylosidase BxlB) (Aspergillus nidulans FGSC A4; N340Q/N408Q/N419Q/N458Q/N621Q/N63Q/N760Q)”, in series [1], the Km was determined as 2360 ± 110 µM, the Vmax was determined as 10.1 µmol/min/mg, the kcat came out at 13.9 s⁻¹ and the kcat/Km was found to be 5870 M⁻¹ s⁻¹.
Regarding “BxlB^wt (GH3 β-xylosidase BxlB) (Aspergillus nidulans FGSC A4; N340Q/N408Q/N419Q/N621Q/N63Q)”, in series [1], the Km amounted to 2810 ± 110 µM, the Vmax worked out at 20.5 µmol/min/mg, the kcat was determined as 28 s⁻¹ and the kcat/Km is 9940 M⁻¹ s⁻¹.
With “BxlB^wt (GH3 β-xylosidase BxlB) (Aspergillus nidulans FGSC A4; N340Q/N408Q/N419Q/N458Q/N621Q)”, in series [1], the Km was 9920 ± 1050 µM, the Vmax turned out to be 4.12 µmol/min/mg, the kcat was found to be 5.64 s⁻¹ and the kcat/Km was 570 M⁻¹ s⁻¹.
On to “BxlB^wt (GH3 β-xylosidase BxlB) (Aspergillus nidulans FGSC A4; N340Q/N408Q/N419Q/N458Q/N621Q/N63Q)”, for which, in series [1], the Km came to 3190 ± 220 µM, the Vmax amounted to 3.42 µmol/min/mg, the kcat came out at 4.37 s⁻¹ and the kcat/Km was determined as 1270 M⁻¹ s⁻¹.
Taken in the same sequence, the figures for “BxlB^wt (GH3 β-xylosidase BxlB) (Aspergillus nidulans FGSC A4; N340Q/N408Q/N419Q/N621Q/N760Q)” were 2910 ± 180 µM, 21.9 µmol/min/mg, 30.1 s⁻¹ and 10300 M⁻¹ s⁻¹.

B1: BxlB (GH3 β-xylosidase): BxlBN7 (protein)
parent chain: MAVFKSWNLALLSSLFIPALCQSNYPDCTTGPLSELPICDTSLSPLERAKSLVSALTLEEKINNTGHEAAGSSRLGLPAYNWWNEALHGVAEKHGVSFEESGDFSYATSFPAPIVLGAAFNDALIRRVAEIISTEARAFSNSDHAGIDYWTPNVNPFKDPRWGRGQETPGEDPLHCSRYVKEFVGGLQGDDPEKPKVVATCKHLAAYDLEEWGGVSRFEFDAKVSAVDLLEYYLPPFKTCAVDASVGAFMCSYNALNGVPACADRYLLQTVLREHWGWEGPGHWVTGDCGAVERIQTYHHYVESGPEAAAAALNAGVDLDCGTWLPSYLGEAERQGLISNETLDAALTRLYTSLVQLGYFDPAEGQPLRSLGWDDVATSEAEELAKTVAIQGTVLLKNIDWTLPLKANGTLALIGPFINFTTELQSNYAGPAKHIPTMIEAAERLGYNVLTAPGTEVNSTSTDGFDDALAIAAEADALIFFGGIDNTVEEESLDRTRIDWPGNQEELILELAELGRPLTVVQFGGGQVDDSALLASAGVGAIVWAGYPSQAGGAGVFDVLTGKAAPAGRLPITQYPKSYVDEVPMTDMNLQPGTDNPGRTYRWYEDAVLPFGFGLHYTTFNVSWAKKAFGPYDAATLARGKNPSSNIVDTFSLAVTNTGDVASDYVALVFASAPELGAQPAPIKTLVGYSRASLIKPGETRKVDVEVTVAPLTRATEDGRVVLYPGEYTLLVDVNDEYPTAKFEIKGDVQVLEKFPLSGNDSD
B1: the “enzymatic_activity, kcat_Km” value in series [2] is listed as “decreases, 1.27 vs 6.34”. Further, the structure_or_conformation result in series [3] is given as “no change”. In series [4], the “stability_or_folding, Tm” value is reported as “decreases”. Also, the expression_or_secretion entry in series [5] is on record as “decreases”.

B2: BxlB (GH3 β-xylosidase): BxlBnon-glyc (protein)
parent chain: MAVFKSWNLALLSSLFIPALCQSNYPDCTTGPLSELPICDTSLSPLERAKSLVSALTLEEKINNTGHEAAGSSRLGLPAYNWWNEALHGVAEKHGVSFEESGDFSYATSFPAPIVLGAAFNDALIRRVAEIISTEARAFSNSDHAGIDYWTPNVNPFKDPRWGRGQETPGEDPLHCSRYVKEFVGGLQGDDPEKPKVVATCKHLAAYDLEEWGGVSRFEFDAKVSAVDLLEYYLPPFKTCAVDASVGAFMCSYNALNGVPACADRYLLQTVLREHWGWEGPGHWVTGDCGAVERIQTYHHYVESGPEAAAAALNAGVDLDCGTWLPSYLGEAERQGLISNETLDAALTRLYTSLVQLGYFDPAEGQPLRSLGWDDVATSEAEELAKTVAIQGTVLLKNIDWTLPLKANGTLALIGPFINFTTELQSNYAGPAKHIPTMIEAAERLGYNVLTAPGTEVNSTSTDGFDDALAIAAEADALIFFGGIDNTVEEESLDRTRIDWPGNQEELILELAELGRPLTVVQFGGGQVDDSALLASAGVGAIVWAGYPSQAGGAGVFDVLTGKAAPAGRLPITQYPKSYVDEVPMTDMNLQPGTDNPGRTYRWYEDAVLPFGFGLHYTTFNVSWAKKAFGPYDAATLARGKNPSSNIVDTFSLAVTNTGDVASDYVALVFASAPELGAQPAPIKTLVGYSRASLIKPGETRKVDVEVTVAPLTRATEDGRVVLYPGEYTLLVDVNDEYPTAKFEIKGDVQVLEKFPLSGNDSD
Turning to B2, the “enzymatic_activity, kcat_Km” value in series [2] is on record as “decreases, 5.87 vs 6.34, BxlBnon-glyc catalytic efficiency was reduced by 7%”. For the same molecule, in series [3], the structure_or_conformation entry is “no change”. Also, in series [5], the expression_or_secretion result is recorded as “decreases”.

B3: BxlB (GH3 β-xylosidase): BxlBN1;5 (protein)
parent chain: MAVFKSWNLALLSSLFIPALCQSNYPDCTTGPLSELPICDTSLSPLERAKSLVSALTLEEKINNTGHEAAGSSRLGLPAYNWWNEALHGVAEKHGVSFEESGDFSYATSFPAPIVLGAAFNDALIRRVAEIISTEARAFSNSDHAGIDYWTPNVNPFKDPRWGRGQETPGEDPLHCSRYVKEFVGGLQGDDPEKPKVVATCKHLAAYDLEEWGGVSRFEFDAKVSAVDLLEYYLPPFKTCAVDASVGAFMCSYNALNGVPACADRYLLQTVLREHWGWEGPGHWVTGDCGAVERIQTYHHYVESGPEAAAAALNAGVDLDCGTWLPSYLGEAERQGLISNETLDAALTRLYTSLVQLGYFDPAEGQPLRSLGWDDVATSEAEELAKTVAIQGTVLLKNIDWTLPLKANGTLALIGPFINFTTELQSNYAGPAKHIPTMIEAAERLGYNVLTAPGTEVNSTSTDGFDDALAIAAEADALIFFGGIDNTVEEESLDRTRIDWPGNQEELILELAELGRPLTVVQFGGGQVDDSALLASAGVGAIVWAGYPSQAGGAGVFDVLTGKAAPAGRLPITQYPKSYVDEVPMTDMNLQPGTDNPGRTYRWYEDAVLPFGFGLHYTTFNVSWAKKAFGPYDAATLARGKNPSSNIVDTFSLAVTNTGDVASDYVALVFASAPELGAQPAPIKTLVGYSRASLIKPGETRKVDVEVTVAPLTRATEDGRVVLYPGEYTLLVDVNDEYPTAKFEIKGDVQVLEKFPLSGNDSD
With B3, the “enzymatic_activity, kcat_Km” value in series [2] is reported as “increases, 10.33 vs 6.34”. In addition, in series [3], the structure_or_conformation result is “no change”. In addition, the “stability_or_folding, Tm” value in series [4] is on record as “decreases, 61.1 vs 63.8”. Moreover, the expression_or_secretion result in series [5] is “decreases”.

B4: BxlB (GH3 β-xylosidase): BxlBN1;7 (protein)
parent chain: MAVFKSWNLALLSSLFIPALCQSNYPDCTTGPLSELPICDTSLSPLERAKSLVSALTLEEKINNTGHEAAGSSRLGLPAYNWWNEALHGVAEKHGVSFEESGDFSYATSFPAPIVLGAAFNDALIRRVAEIISTEARAFSNSDHAGIDYWTPNVNPFKDPRWGRGQETPGEDPLHCSRYVKEFVGGLQGDDPEKPKVVATCKHLAAYDLEEWGGVSRFEFDAKVSAVDLLEYYLPPFKTCAVDASVGAFMCSYNALNGVPACADRYLLQTVLREHWGWEGPGHWVTGDCGAVERIQTYHHYVESGPEAAAAALNAGVDLDCGTWLPSYLGEAERQGLISNETLDAALTRLYTSLVQLGYFDPAEGQPLRSLGWDDVATSEAEELAKTVAIQGTVLLKNIDWTLPLKANGTLALIGPFINFTTELQSNYAGPAKHIPTMIEAAERLGYNVLTAPGTEVNSTSTDGFDDALAIAAEADALIFFGGIDNTVEEESLDRTRIDWPGNQEELILELAELGRPLTVVQFGGGQVDDSALLASAGVGAIVWAGYPSQAGGAGVFDVLTGKAAPAGRLPITQYPKSYVDEVPMTDMNLQPGTDNPGRTYRWYEDAVLPFGFGLHYTTFNVSWAKKAFGPYDAATLARGKNPSSNIVDTFSLAVTNTGDVASDYVALVFASAPELGAQPAPIKTLVGYSRASLIKPGETRKVDVEVTVAPLTRATEDGRVVLYPGEYTLLVDVNDEYPTAKFEIKGDVQVLEKFPLSGNDSD
In the case of B4, the “enzymatic_activity, kcat_Km” value in series [2] is “decreases, 0.57 vs 6.34”. Moreover, the structure_or_conformation result in series [3] is reported as “no change”. For the same molecule, the “stability_or_folding, Tm” value in series [4] is reported as “decreases”. For the same molecule, in series [5], the expression_or_secretion entry is on record as “decreases”.

B5: BxlB (GH3 β-xylosidase): BxlBN5;7 (protein)
parent chain: MAVFKSWNLALLSSLFIPALCQSNYPDCTTGPLSELPICDTSLSPLERAKSLVSALTLEEKINNTGHEAAGSSRLGLPAYNWWNEALHGVAEKHGVSFEESGDFSYATSFPAPIVLGAAFNDALIRRVAEIISTEARAFSNSDHAGIDYWTPNVNPFKDPRWGRGQETPGEDPLHCSRYVKEFVGGLQGDDPEKPKVVATCKHLAAYDLEEWGGVSRFEFDAKVSAVDLLEYYLPPFKTCAVDASVGAFMCSYNALNGVPACADRYLLQTVLREHWGWEGPGHWVTGDCGAVERIQTYHHYVESGPEAAAAALNAGVDLDCGTWLPSYLGEAERQGLISNETLDAALTRLYTSLVQLGYFDPAEGQPLRSLGWDDVATSEAEELAKTVAIQGTVLLKNIDWTLPLKANGTLALIGPFINFTTELQSNYAGPAKHIPTMIEAAERLGYNVLTAPGTEVNSTSTDGFDDALAIAAEADALIFFGGIDNTVEEESLDRTRIDWPGNQEELILELAELGRPLTVVQFGGGQVDDSALLASAGVGAIVWAGYPSQAGGAGVFDVLTGKAAPAGRLPITQYPKSYVDEVPMTDMNLQPGTDNPGRTYRWYEDAVLPFGFGLHYTTFNVSWAKKAFGPYDAATLARGKNPSSNIVDTFSLAVTNTGDVASDYVALVFASAPELGAQPAPIKTLVGYSRASLIKPGETRKVDVEVTVAPLTRATEDGRVVLYPGEYTLLVDVNDEYPTAKFEIKGDVQVLEKFPLSGNDSD
Take B5: the “enzymatic_activity, kcat_Km” value in series [2] is “increases, 9.94 vs 6.34”. Further, the structure_or_conformation result in series [3] is on record as “no change”. In addition, in series [4], the “stability_or_folding, Tm” value is “decreases, 55.1 vs 63.8”. In addition, the expression_or_secretion result in series [5] is on record as “decreases”.
